The text below walks through data of IntAct's records for PubMed 13679922.

B1: Protein maternal effect lethal 26 (Caenorhabditis elegans), Q94420 (parent)
chain: MEPRIDGGVFIGGIGNSGNEMCSNGVPALGVSSQTEIKVEKVQHTWTVKNFSHCYQEYLENFVYLQRGDEQLTWSIKIYPKGNGENNKDFVFLCLNRVINNNVKAGKIGFKSQFKLRTAENKDIEMRIHPNPSHSDYVSYIKRDVLFPQIMPRDMIIVNVEIDVAVETITTTNEPIQFEPTNSEQQLIEDYQRLFSQELLCDFAINVNGKIIRAHKAVLAARSPVFNAMLTHQDTDEAKSSMMYINDMDYDVIYEMVYYIYCGRCNKDITDMATALLIAADKYRLEELKSHCEKYLVENINIENACSLLIIGDLYSAPKLRKRAVTYILARPKNVTGTPGWEDILKGHPNLITDIFSQIDRQSSTGATSSVSNLPGVPMDIPGITGNIVPPPSGL
partner: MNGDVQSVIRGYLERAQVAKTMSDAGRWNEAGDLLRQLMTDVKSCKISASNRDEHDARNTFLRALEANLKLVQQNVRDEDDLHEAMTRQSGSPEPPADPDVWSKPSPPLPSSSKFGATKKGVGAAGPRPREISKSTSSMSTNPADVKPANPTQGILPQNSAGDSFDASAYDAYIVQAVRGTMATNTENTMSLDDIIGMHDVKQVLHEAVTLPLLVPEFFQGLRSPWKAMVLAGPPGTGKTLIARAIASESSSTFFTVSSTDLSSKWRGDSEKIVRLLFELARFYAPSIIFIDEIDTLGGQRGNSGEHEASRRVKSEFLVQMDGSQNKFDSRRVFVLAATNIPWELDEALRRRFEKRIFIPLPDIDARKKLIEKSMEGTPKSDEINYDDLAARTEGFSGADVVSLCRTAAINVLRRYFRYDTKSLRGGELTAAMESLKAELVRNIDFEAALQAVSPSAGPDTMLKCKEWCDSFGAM
B2: Meiotic spindle formation protein mei-1 (Caenorhabditis elegans), P34808-2 (parent)
chain: B1 partner
partner: B1 chain
B3: Cullin-3 (Caenorhabditis elegans), Q17391 (parent)
chain: MSGRSGNGGQQKMRIRPFMATIDEQYVTQTWELLKRAIQEIQRKNNSGLSFEELYRNAYTMVLHKHGERLYNGLKDVIQDHMASVRIRIIESMNSGSFLETVAESWADHTVAMVMIRDILMYMDRIYVAQNNHVLPVYNLGLDAYRTEILRQNGIGDRIRDALLELIKLDRKSNQINWHGIKNACDMLISLGIDSRTVYEDEFERPLLKETSDYYRDVCKNWLSGDNDACFYLAQVEIAMHDEASRASRYLDKMTEAKILQVMDDVMVAEHIQTIVYMQNGGVKFMLEHKKIEDLTRIFRIFKRIGDSVTVPGGGLKALLKAVSEYLNETGSNIVKNEDLLKNPVNFVNELLQLKDYFSSLLTTAFADDRDFKNRFQHDFETFLNSNRQSPEFVALYMDDMLRSGLKCVSDAEMDNKLDNVMILFRYLQEKDVFEKYFKQYLAKRLLLDKSCSDDVEKALLAKLKTECGCQFTQKLENMFRDKELWLTLATSFRDWREAQPTKMSIDISLRVLTAGVWPTVQCNPVVLPQELSVAYEMFTQYYTEKHTGRKLTINTLLGNADVKATFYPPPKASMSNEENGPGPSSSGESMKERKPEHKILQVNTHQMIILLQFNHHNRISCQQLMDELKIPERELKRNLQSLALGKASQRILVRKNKGKDAIDMSDEFAVNDNFQSKLTRVKVQMVTGKVESEPEIRETRQKVEDDRKLEVEAAIVRIMKARKKLNHNNLVAEVTQQLRHRFMPSPIIIKQRIETLIEREYLARDEHDHRAYQYIA
partner: B1 chain
B4: Cullin-3 (Caenorhabditis elegans), Q17391 (parent)
chain: B3 chain
partner: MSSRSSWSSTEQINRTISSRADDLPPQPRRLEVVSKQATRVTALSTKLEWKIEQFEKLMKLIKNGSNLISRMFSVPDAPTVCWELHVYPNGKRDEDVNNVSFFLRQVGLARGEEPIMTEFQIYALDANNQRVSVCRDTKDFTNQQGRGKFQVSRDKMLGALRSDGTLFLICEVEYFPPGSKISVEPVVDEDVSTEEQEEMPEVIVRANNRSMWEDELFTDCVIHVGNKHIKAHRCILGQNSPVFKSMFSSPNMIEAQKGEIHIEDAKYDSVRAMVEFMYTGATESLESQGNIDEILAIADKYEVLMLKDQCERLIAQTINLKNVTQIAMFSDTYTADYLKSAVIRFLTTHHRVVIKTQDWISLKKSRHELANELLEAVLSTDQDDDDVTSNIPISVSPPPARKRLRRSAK

In one assay the parent is B1. The settings on record: with mei-1, P34808-2.
For MEPRIDGGVFIGGIGNSGNEMCSNGVPALGVSSQTEIKVEKVQHTWTVKNFSHCYQEYLENFVYLQRGDEQLTWSIKIYPKGNGENNKDFVFLYLNRVINNNVKAGKIGFKSQFKLRTAENKDIEMRIHPNPSHSDYVSYIKRDVLFPQIMPRDMIIVNVEIDVAVETITTTNEPIQFEPTNSEQQLIEDYQRLFSQELLCDFAINVNGKIIRAHKAVLAARSPVFNAMLTHQDTDEAKSSMMYINDMDYDVIYEMVYYIYCGRCNKDITDMATALLIAADKYRLEELKSHCEKYLVENINIENACSLLIIGDLYSAPKLRKRAVTYILARPKNVTGTPGWEDILKGHPNLITDIFSQIDRQSSTGATSSVSNLPGVPMDIPGITGNIVPPPSGL [C94Y], the “effect of a mutation on the interaction” value is recorded as “decreasing interaction”.

In a further assay the parent is B2. The settings on record: with mel26_caeel mel-26, Q94420.
For the variant MNGDVQSVIRGYLERAQVAKTMSDAGRWNEAGDLLRQLMTDVKSCKISASNRDEHDARNTFLRALEANLKLVQQNVRDEDDLHEAMTRQSGSPEPPADLDVWSKPSPPLPSSSKFGATKKGVGAAGPRPREISKSTSSMSTNPADVKPANPTQGILPQNSAGDSFDASAYDAYIVQAVRGTMATNTENTMSLDDIIGMHDVKQVLHEAVTLPLLVPEFFQGLRSPWKAMVLAGPPGTGKTLIARAIASESSSTFFTVSSTDLSSKWRGDSEKIVRLLFELARFYAPSIIFIDEIDTLGGQRGNSGEHEASRRVKSEFLVQMDGSQNKFDSRRVFVLAATNIPWELDEALRRRFEKRIFIPLPDIDARKKLIEKSMEGTPKSDEINYDDLAARTEGFSGADVVSLCRTAAINVLRRYFRYDTKSLRGGELTAAMESLKAELVRNIDFEAALQAVSPSAGPDTMLKCKEWCDSFGAM [P99L], the “effect of a mutation on the interaction” value was “decreasing interaction”.

In a further assay the parent is B3. The settings on record: with mel26_caeel mel-26, Q94420.
Consider L49A, for which the “effect of a mutation on the interaction” value is “decreasing interaction”. Take E52A: the “effect of a mutation on the interaction” value is “decreasing interaction”.

Variants of B4 are the subject of the next assay. The settings on record: with bat42_caeel bath-42, P34371.
For L49A, the “effect of a mutation on the interaction” value is given as “decreasing interaction”. Take E52A: the “effect of a mutation on the interaction” value is “decreasing interaction”.
